Results taken from PMC3481545.

B1: human recombinant BMPR-II ECD, wild type (domain or fragment)
chain: ASQNQERLCAFKDPYQQDLGIGESRISHENGTILCSKGSTCYGLWEKSKGDINLVKQGCWSHIGDPQECHYEECVVTTTPPSIQNGTYRFCCCSTDLCNVNFTENFPPPDTTPLSPPHSFNRDET
B2: BMPR-II ECD Y40G (domain or fragment)
chain: ASQNQERLCAFKDPGQQDLGIGESRISHENGTILCSKGSTCYGLWEKSKGDINLVKQGCWSHIGDPQECHYEECVVTTTPPSIQNGTYRFCCCSTDLCNVNFTENFPPPDTTPLSPPHSFNRDET
B3: BMPR-II ECD S107P (domain or fragment)
chain: ASQNQERLCAFKDPYQQDLGIGESRISHENGTILCSKGSTCYGLWEKSKGDINLVKQGCWSHIGDPQECHYEECVVTTTPPPIQNGTYRFCCCSTDLCNVNFTENFPPPDTTPLSPPHSFNRDET
B4: BMPR-II ECD Y40R (domain or fragment)
chain: ASQNQERLCAFKDPRQQDLGIGESRISHENGTILCSKGSTCYGLWEKSKGDINLVKQGCWSHIGDPQECHYEECVVTTTPPSIQNGTYRFCCCSTDLCNVNFTENFPPPDTTPLSPPHSFNRDET
B5: BMPR-II ECD Y40Q (domain or fragment)
chain: ASQNQERLCAFKDPQQQDLGIGESRISHENGTILCSKGSTCYGLWEKSKGDINLVKQGCWSHIGDPQECHYEECVVTTTPPSIQNGTYRFCCCSTDLCNVNFTENFPPPDTTPLSPPHSFNRDET
B6: BMPR-II ECD Y40P (domain or fragment)
chain: ASQNQERLCAFKDPPQQDLGIGESRISHENGTILCSKGSTCYGLWEKSKGDINLVKQGCWSHIGDPQECHYEECVVTTTPPSIQNGTYRFCCCSTDLCNVNFTENFPPPDTTPLSPPHSFNRDET
B7: BMPR-II ECD G47N (domain or fragment)
chain: ASQNQERLCAFKDPYQQDLGINESRISHENGTILCSKGSTCYGLWEKSKGDINLVKQGCWSHIGDPQECHYEECVVTTTPPSIQNGTYRFCCCSTDLCNVNFTENFPPPDTTPLSPPHSFNRDET

The binders below were run against Activin (UniProt P08476) (assay: SPR).

B1 was tested. Which Kd did it give?
Its Kd is 26 µM.

For B2, which Kd is on record?
Its Kd is 54 µM.

How did the Kd turn out when B3 was run?
Its Kd is 23 µM.

B4 was tested. Which Kd did it give?
The Kd was 46 µM.

For B5, which Kd is on record?
The Kd was 35 µM.

Which Kd does the source give for B6 here?
The Kd was 70 µM.

Which Kd does the source give for B7 here?
Its Kd is 30 µM.
